From patent publication US20220332804A1 (CSL INNOVATION, published 2022)

Assays:
Experiment in all cases: SPR, antibody captured, C2 as analyte;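 note: biacore at 37 °C, anti-C2 mAbs held by immobilised goat anti-human IgG, C2 alanine or serine mutants injected, double-referenced sensorgrams fitted to a 1:1 kinetic or steady-state model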
human C2 R688A = molecular target: T1, human C2 R688A (human, UniProt P06681 21-752)
T1 sequence: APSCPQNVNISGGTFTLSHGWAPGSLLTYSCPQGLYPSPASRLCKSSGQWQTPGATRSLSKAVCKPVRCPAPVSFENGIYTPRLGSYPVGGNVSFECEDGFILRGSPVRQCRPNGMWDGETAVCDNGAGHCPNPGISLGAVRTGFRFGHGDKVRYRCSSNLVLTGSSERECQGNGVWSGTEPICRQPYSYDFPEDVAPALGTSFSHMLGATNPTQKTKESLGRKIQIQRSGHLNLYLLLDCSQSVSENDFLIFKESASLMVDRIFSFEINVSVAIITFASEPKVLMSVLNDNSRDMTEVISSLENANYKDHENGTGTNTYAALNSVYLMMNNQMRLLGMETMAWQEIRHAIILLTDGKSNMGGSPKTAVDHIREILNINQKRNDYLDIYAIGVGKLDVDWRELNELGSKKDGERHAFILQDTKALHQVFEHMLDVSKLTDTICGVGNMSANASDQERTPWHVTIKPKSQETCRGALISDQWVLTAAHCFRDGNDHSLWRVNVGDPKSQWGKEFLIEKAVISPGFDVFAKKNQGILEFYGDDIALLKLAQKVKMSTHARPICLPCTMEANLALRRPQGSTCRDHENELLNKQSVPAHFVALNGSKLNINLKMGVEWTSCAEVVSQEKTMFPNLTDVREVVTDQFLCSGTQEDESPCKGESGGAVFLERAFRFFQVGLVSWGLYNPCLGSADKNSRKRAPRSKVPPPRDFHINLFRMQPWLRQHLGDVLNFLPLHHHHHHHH

human C2 S473A = molecular target: T2, human C2 S473A (human, UniProt P06681 21-752)
T2 sequence: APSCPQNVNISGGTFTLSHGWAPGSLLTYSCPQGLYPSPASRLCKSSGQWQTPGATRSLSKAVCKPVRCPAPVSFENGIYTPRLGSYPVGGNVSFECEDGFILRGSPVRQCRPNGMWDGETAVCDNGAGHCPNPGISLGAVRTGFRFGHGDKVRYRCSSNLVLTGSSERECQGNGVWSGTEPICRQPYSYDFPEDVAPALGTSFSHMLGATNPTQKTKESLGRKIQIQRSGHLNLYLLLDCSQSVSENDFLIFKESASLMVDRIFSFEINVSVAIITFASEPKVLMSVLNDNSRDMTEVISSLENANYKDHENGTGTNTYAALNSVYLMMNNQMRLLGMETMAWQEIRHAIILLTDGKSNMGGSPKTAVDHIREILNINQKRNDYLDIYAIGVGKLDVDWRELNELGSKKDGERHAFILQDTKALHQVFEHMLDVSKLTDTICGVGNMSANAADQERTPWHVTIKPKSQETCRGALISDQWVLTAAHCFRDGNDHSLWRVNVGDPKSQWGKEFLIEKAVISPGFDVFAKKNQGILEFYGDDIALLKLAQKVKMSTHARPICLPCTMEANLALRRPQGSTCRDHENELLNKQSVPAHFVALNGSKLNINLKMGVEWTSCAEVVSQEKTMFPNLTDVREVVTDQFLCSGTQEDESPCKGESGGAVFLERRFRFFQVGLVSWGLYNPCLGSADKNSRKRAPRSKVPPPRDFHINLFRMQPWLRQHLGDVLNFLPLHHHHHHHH

human C2 M452A = molecular target: T3, human C2 M452A (human, UniProt P06681 21-752)
T3 sequence: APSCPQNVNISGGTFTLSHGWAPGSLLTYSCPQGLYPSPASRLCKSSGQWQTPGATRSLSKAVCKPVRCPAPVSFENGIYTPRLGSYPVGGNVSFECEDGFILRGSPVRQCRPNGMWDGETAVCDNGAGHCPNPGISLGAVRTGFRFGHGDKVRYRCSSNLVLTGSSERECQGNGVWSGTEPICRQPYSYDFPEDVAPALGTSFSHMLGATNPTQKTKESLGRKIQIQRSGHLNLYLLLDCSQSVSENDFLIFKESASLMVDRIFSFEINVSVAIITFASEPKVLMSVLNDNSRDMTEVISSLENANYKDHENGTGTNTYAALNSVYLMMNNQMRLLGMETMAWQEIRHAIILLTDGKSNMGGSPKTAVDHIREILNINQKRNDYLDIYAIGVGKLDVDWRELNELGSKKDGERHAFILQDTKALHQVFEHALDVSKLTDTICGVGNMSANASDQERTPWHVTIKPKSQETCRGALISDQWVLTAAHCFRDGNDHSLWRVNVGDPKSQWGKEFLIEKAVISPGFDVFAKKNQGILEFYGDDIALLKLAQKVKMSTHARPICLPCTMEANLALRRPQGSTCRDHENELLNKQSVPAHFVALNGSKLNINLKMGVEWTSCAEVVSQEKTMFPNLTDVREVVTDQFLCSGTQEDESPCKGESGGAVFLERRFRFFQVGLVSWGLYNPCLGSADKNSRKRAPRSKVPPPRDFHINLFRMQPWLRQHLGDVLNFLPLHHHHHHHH

human C2 S278A = molecular target: T4, human C2 S278A (human, UniProt P06681 21-752)
T4 sequence: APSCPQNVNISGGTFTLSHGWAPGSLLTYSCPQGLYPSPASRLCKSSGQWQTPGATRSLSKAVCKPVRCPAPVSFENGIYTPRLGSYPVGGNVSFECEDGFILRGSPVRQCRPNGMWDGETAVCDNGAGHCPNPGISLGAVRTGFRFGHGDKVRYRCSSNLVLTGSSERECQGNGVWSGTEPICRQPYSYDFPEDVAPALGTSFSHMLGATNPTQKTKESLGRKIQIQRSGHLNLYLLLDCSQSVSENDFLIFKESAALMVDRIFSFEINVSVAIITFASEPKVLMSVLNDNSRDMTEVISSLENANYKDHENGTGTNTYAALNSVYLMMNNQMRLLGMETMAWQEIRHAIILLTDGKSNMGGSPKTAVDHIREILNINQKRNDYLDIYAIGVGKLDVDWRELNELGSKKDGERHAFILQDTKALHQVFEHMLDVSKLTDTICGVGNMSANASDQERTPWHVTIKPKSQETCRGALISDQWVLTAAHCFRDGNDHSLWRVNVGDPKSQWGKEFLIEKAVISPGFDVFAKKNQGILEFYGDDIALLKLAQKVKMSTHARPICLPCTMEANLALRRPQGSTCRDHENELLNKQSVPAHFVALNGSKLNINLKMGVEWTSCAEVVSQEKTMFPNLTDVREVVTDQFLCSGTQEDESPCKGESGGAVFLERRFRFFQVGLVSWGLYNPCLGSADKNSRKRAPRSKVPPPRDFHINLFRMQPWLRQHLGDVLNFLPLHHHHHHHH

B1: RF16-242 (antibody, human IgG4 S228P, lambda, V domains shown)
VH: EVQLLQSGAEVKKPGESLKISCKGSGYSFTSYWIGWVRQMPGKGLEWMGIIYPGDSDTRYSPSFQGQVTISADKSISTAYLQWSSLKASDTAMYYCARRGHYGDYFDYWGQGTLVTVSS
VL: SYELTQPPSVSVSPGQTARITCSGDALPKKYAYWYHQKSGQAPVLVIYEDRRRPSEIPERFSGSSSGTMATLTITGAQVEDEGVYFCYSRDRAGNQRVFGGGTQLTVLG
notes: pH-dependent anti-C2 antibody from a phage display library
- Kd (human C2 R688A): 17.3 nM
- Kd (human C2 S473A): 15.5 nM
- Kd (human C2 M452A): 5.3 nM
- Kd (human C2 S278A): 6.5 nM
